Reference: the supplement of paper PMC11780869

Tested on: Bacillus subtilis
Assay: cleaved RNA product abundance (RNA/gDNA barcode ratio) relative to median wild-type variant (ratio to wild type); higher = more accumulation of the downstream cleavage product
Method in brief: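 B. subtilis strains with chromosomally integrated reporter mRNAs (truncated aprE or tetM) holding barcoded, mutagenized RNase Y cleavage-site windows grew in LB at 37°C from OD600 0.0003 to 0.3. Cleaved product abundance is each construct's RNA:gDNA barcode ratio, scaled to the median construct with the unmutated site. It came from sequencing barcodes of gel-selected, reverse-transcribed cleaved RNA and of genomic DNA.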

[1] = experiment (reporter, strain, medium): exp 4a: truncated aprE reporter, strain BJT201 with 2% xylose (RNase J1 expressed), cleavage site: cggR-gapA (positions -7 to +36 mutated)
[2] = experiment (reporter, strain, medium): exp 8a: truncated aprE reporter, strain BJT201 with 2% xylose (RNase J1 expressed), cleavage site: glnRA (positions -5 to +31 mutated)
[3] = experiment (reporter, strain, medium): exp 2b: truncated aprE reporter, strain BJT200, cleavage site: cggR-gapA (positions -7 to +36 mutated)
[4] = experiment (reporter, strain, medium): exp 6: tetM reporter, strain 168, cleavage site: cggR-gapA (positions -7 to +36 mutated)

Sequence | cleaved RNA product abundance [1] | cleaved RNA product abundance [2] | further results
ACAGACGAAGGAGCCGCATAGAAGTTATTAAGCGATGAATAATCCCTCAATATAAATATCTCTCACTTATTTAAA | 0.122 |  | 
CGACATGTCCCGCTTCTTTCATTAATCCCTTAGCAACTGTTTTGCTATATACATTTACATTTTAAGAGGAGGAAT |  | 0.242 | 
ACAGACGAAGGAGCCGCAAAAACGTTATTAAGGGATGAATAATCCCTCAATATAAATATCTCTCACTTATTTAAA | 1.04 |  | 
CGACATGTCCCGCTTCTTTCATTAATCCTTTAGCAACTGTTTTGATATATACATTTACCTTTTAAGAGGAGGAAT |  | 0.374 | 
CGACATGTCCCGCTTCTTTCATTAATCCGTTAGCAACTGTTTTGCTATATACAATTTACCTTTTAAGAGGAGGAA |  | 1.39 | 
ACAGACGAAGGAGCCGCAAAGAAGTGATGAAGGGATGAATAATCCCTCAATATAAATATCTCTCACTTATTTAAA |  |  | cleaved RNA product abundance [3]: 0.446
ACAGACGAAGGAGCCGCATAGAAGTTATTAAGGGATGAATAATCCCTCAATATTAATATCTCTCACTTATTTAAA | 0.121 |  | 
CGACATGTCCCGCTTCTTTCATTAATCCGTTAGCAACTGTTTTTCTATATACATATACCTTTTAAGAGGAGGAAT |  | 0.656 | 
ACAGACGAAGGAGCCGCAAGGAAGTTATTAAGGGATGAATAATACCTCAATATAAATATCTCTCACTTATTTAAA | 0.197 |  | cleaved RNA product abundance [3]: 0.0986
CGACATGTCCCGCTTCTTTCATTAATCCGTTAGAAACTGTTTTGCTATATAAATTTACCTTTTAAGAGGAGGAAT |  | 0.256 | 
CGACATGTCCCGCTTCTTTCATTAATCCGTTAGCAAGTGTTTTGCTAAATACATTTACCTTTTAAGAGGAGGAAT |  | 0.596 | 
ACAGACGAAGGAGCCGCAAAGAAGTTTTTAAGGGATGAATAATCCCGCAATATAAATATCTCTCACTTATTTAAA | 0.137 |  | 
CGACATGTCCCGCTTCTTTCATTAAAACGTTAGCAACTGTTTTGCTATATACATTTACCTTTTAAGAGGAGGAAT |  | 0.868 | 
ACAGACGAAGGAGCCGCAAAGAATTTATTAAGAGATGAATAATCCCTCAATATAAATATCTCTCACTTATTTAAA | 0.142 |  | cleaved RNA product abundance [3]: 0.112
CGACATGTCCCGCTTCTTTCATTAATCCGTTAGCAACTGTTTTGCTTTATAAATTTACCTTTTAAGAGGAGGAAT |  | 0.385 | 
CGACATGTCCCGCTTCTTTCATTAGTCCGTTAGCAACTGTTTTGCTATATACATTTACCTTTTAAGAGGAGGAAT |  | 0.767 | 
CGACATGTCCCGCTTCTTTCATTAATCCGTTACCAACTGTTTTCCTATATACATTTACCTTTTAAGAGGAGGAAT |  | 0.203 | 
ACAGACGAAGGAGCCGCAAAGAAGTTACTAAGGCATGAATAATCCCTCAATATAAATATCTCTCACTTATTTAAA | 0.112 |  | 
CGACATGTCCCGCTTCTTTCATTAATCCGTTAGCTACTGTTTTGCTATATATATTTACCTTTTAAGAGGAGGAAT |  | 0.617 | 
ACAGACGAAGGAGCCGCAAAGAACTTATTAAGGGATGAATAATACCTCAATATAAATATCTCTCACTTATTTAAA | 0.165 |  | cleaved RNA product abundance [3]: 0.0995
ACAGACGAAGGAGCCGCAAAAAAGTTATTAAGGGATGAATAATCACTCAATATAAATATCTCTCACTTATTTAAA | 0.12 |  | cleaved RNA product abundance [3]: 0.108

Sequence | cleaved RNA product abundance [1] | cleaved RNA product abundance [2] | further results
ACAGACGAAGGAGCCGCAAAGAAGTTATTAAGGTATGAATAATCCCTCTATATAAATATCTCTCACTTATTTAAA | 0.11 |  | cleaved RNA product abundance [3]: 0.0999
ACAGACGAAGGAGCCGCAAAGAATTTATTAAGGGATGAATAATCCCTCAATATAAAAATCTCTCACTTATTTAAA | 0.532 |  | 
CGACATGTCCCGCTTCTTTCATTAATCCGTTAGCAACTGTTTTGCTATTTACACTTACCTTTTAAGAGGAGGAAT |  | 0.12 | 
ACAGACGAAGGAGCCGCAAAGAAGTTATTAAAGGATGAATAATCCCTCAATATAAATATATCTCACTTATTTAAA | 0.259 |  | 
CGACATGTCCCGCTTCTTTCATTAATCCGTTTGCAACTGTTTTGCTATATACATTTACCTTTTAAGAGGAGGAAT |  | 0.549 | 
CGACATGTCCCGCTTCTTTCATTATTCCGTTAGCAACTGTTTTGCTATTTACATTTACCTTTTAAGAGGAGGAAT |  | 0.131 | 
CGACATGTCCCGCTTCTTTCATTAATCCGTTAGCGACTGTTTAGCTATATACATTTACCTTTTAAGAGGAGGAAT |  | 0.681 | 
ACAGACGAAGGAGCCGCAAAGAAGTTATTAAGGGATGAATAATTGCTCAATATAAATATCTCTCACTTATTTAAA | 0.0655 |  | cleaved RNA product abundance [3]: 0.0946
CGACATGTCCCGCTTCTTTCATTAATCCGTTAGCAACTTTTTTGCTATATACATTTAACTTTTAAGAGGAGGAAT |  | 1.81 | 
ACAGACGAAGGAGCCGCAAACAAGTTATTAAGGAATGAATAATCCCTCAATATAAATATCTCTCACTTATTTAAA | 0.123 |  | cleaved RNA product abundance [3]: 0.115; cleaved RNA product abundance [4]: 0.139
ACAGACGAAGGAGCCGCAAATAAGTTATTAAGGGATGAATAATCCATCAATATAAATATCTCTCACTTATTTAAA | 0.261 |  | cleaved RNA product abundance [3]: 0.172
ACAGACGAAGGAGCCGCATAGAAGTTATTAAGGCATGAATAAGCCCTCAATATAAATATCTCTCACTTATTTAAA | 0.143 |  | 
CGACATGTCCCGCTTCTTTCATTAATCCTTAGCACCTGTTTTGCTATATACATTATCCTTTTAAGAGGAGGAATT |  | 0.144 | 
ACAGACGAAGGAGCCGCAAAGAAGTAATTAAGGGATGACTAATCCCTCAATATAAATATCTCTCACTTATTTAAA | 0.289 |  | cleaved RNA product abundance [3]: 0.123
ACAGACGAAGGAGCCGCAAAGAAGTTAATAAGGGATGAATAATCCCTCAATATAAATAGCTCTCACTTATTTAAA | 0.293 |  | 
ACAGACGAAGGAGCCGCAAAGAAGTTATGAAGGGATGAATAATCCCTTAATATAAATATCTCTCACTTATTTAAA | 0.789 |  | 
CGACATGTCCCGCTTCTTTCATTAATCAGTTAGCAACTGTTTTGCTATATACATTTACCATTTAAGAGGAGGAAT |  | 0.636 | 
ACAGACGAAGGAGCCGCAAAGAAGTTATTAAGGGATGAATAATCCCTCATAATAAATATCTCTCACTTATTTAAA | 0.554 |  | 
CGACATGTCCCGCTTCTTTCATTAGTCCGTTAGCAACAGTTTTGCTATATACATTTACCTTTTAAGAGGAGGAAT |  | 0.968 | 
ACAGACGAAGGAGCCGCAATGAAGTTATTAAGGGATGAATAATCACTCAATATAAATATCTCTCACTTATTTAAA | 0.129 |  | cleaved RNA product abundance [3]: 0.126
CGACATGTCCCGCTTCTTTCATTAATCCGTTAGCAACTGTTTTGCTATATACAATTATCTTTTAAGAGGAGGAAT |  | 0.873 | 

Sequence | cleaved RNA product abundance [1] | cleaved RNA product abundance [2] | further results
ACAGACGAAGGAGCCGCAAAGAACTTATTAAGGGATGAAAAATCCCTCAATATAAATATCTCTCACTTATTTAAA | 0.521 |  | 
ACAGACGAAGGAGCCGCAAAGAAGTTATGAAGGGATGCATAATCCCTCAATATAAATATCTCTCACTTATTTAAA | 0.542 |  | 
ACAGACGAAGGAGCCGCAAAGAAGTTATTAAGGGATGAAAAATCGCTCAATATAAATATCTCTCACTTATTTAAA | 0.0823 |  | 
ACAGACGAAGGAGCCGCGAAGAACTTATTAAGGGATGAATAATCCCTCAATATAAATATCTCTCACTTATTTAAA | 0.252 |  | 
ACAGACGAAGGAGCCGCAAAGAATTTATTAAAGGATGAAAAATCCCTCAATATAAATATCTCTCACTTATTTAAA | 0.197 |  | 
CGACATGTCCCGCTTCTTTCATTAATCCGTTATCAACTGTTTTGCTATATACATTTATCTTTTAAGAGGAGGAAT |  | 0.347 | 
ACAGACGAAGGAGCCGCAAAGAAGTTATTGAGGGATGAATTATCCCTCAATATAAATATCTCTCACTTATTTAAA | 0.0896 |  | 
ACAGACGAAGGAGCCGCAAAGAAGTTATCAAGGGATGAAAAATCCCTCAATATAAATATCTCTCACTTATTTAAA | 0.272 |  | 
CGACATGTCCCGCTTCTTTCATTAATCCGTTACCAACTGTTTTACTATATACATTTACCTTTTAAGAGGAGGAAT |  | 0.204 | 
CGACATGTCCCGCTTCTTTCATTAATGCGTTAGCAACTGTTTTGGTATATACATTTACCTTTTAAGAGGAGGAAT |  | 0.244 | 
ACAGACGAAGGAGCCGCAAAGAAGTTATTAAGGGATGAATATTCCCTCAAAATAAATATCTCTCACTTATTTAAA | 0.224 |  | cleaved RNA product abundance [3]: 0.231
CGACATGTCCCGCTTCTTTCATTAATCCGTTAGCAACTATTTTGCTATATACATTTACCTTTTAAGAGGAGGAAT |  | 1.34 | 
ACAGACGAAGGAGCCGCAAAAAAGTTATTAAGGGATGCATAATCCCTCAATATAAATATCTCTCACTTATTTAAA | 1.02 |  | cleaved RNA product abundance [3]: 0.986
ACAGACGAAGGAGCCGCAAAGAAGTTATTAAGGGATGAATAATCCATTAATATAAATATCTCTCACTTATTTAAA | 0.688 |  | cleaved RNA product abundance [3]: 0.766; cleaved RNA product abundance [4]: 0.984
ACAGACGAAGGAGCCGCAAAGATGTTATTAAGGGATGAATAATCCATCAATATAAATATCTCTCACTTATTTAAA | 0.311 |  | cleaved RNA product abundance [3]: 0.171
CGACATGTCCCGCTTCTTTCATTAATCCGTTAGGAACTGTTTAGCTATATACATTTACCTTTTAAGAGGAGGAAT |  | 0.327 | 
CGACATGTCCCGCTTCTTTCATTAATCCGTTAGCAACTGGTTTGCTATATACATTTACCTTTTAAGAGGAGGAAT |  | 0.811 | 
ACAGACGAAGGAGCCGCAAAGAAGTTATTAAGGGAGAAATAATCCCTCAATATAAATATCTCTCACTTATTTAAA | 0.795 |  | 
ACAGACGAAGGAGCCGCAAAAAAGTCATTAAGGGATGAATAATCCCTCAATATAAATATCTCTCACTTATTTAAA | 0.37 |  | 
